From patent US20260062488A1 (AbbVie / Abbott, published 2026) come the findings set out here.

Experiment [1] deals with T1, rabbit α4β7 integrin (rabbit).
T1 construct: whole, on cells; On rabbit PBMCs
The experiment is described as follows: FACS, rabbit lymphocytes. On the technique in general: In flow cytometry, cells or beads pass a laser one at a time.

Experiment [2] deals with T2, cynomolgus α4β7 integrin (cynomolgus monkey).
T2 construct: whole, on cells; On CHOK1-cα4β7 cells or cynomolgus blood lymphocytes; also called cα4β7; cyno α4β7
The experiment is described as follows: FACS, cyno CD4+ memory.

In experiment [3] the target is T2, cynomolgus α4β7 integrin. Nature of the experiment: FACS, cyno CD8+ total.
Experiment [4] deals with T3, cynomolgus FcγRIIb extracellular domain protein (cynomolgus monkey).
T3 construct: extracellular domain; also called Cyno FcγRIIb
Nature of the experiment: SPR (Biacore), N = 1. A general note: Surface plasmon resonance follows binding to a sensor surface in real time, without labels.

Experiment [5] has as its target T4, cynomolgus FcγRIII extracellular domain protein (cynomolgus monkey, UniProt Q8SPW2 17-208).
T4 construct: extracellular domain; also called Cyno FcγRIII
Nature of the experiment: SPR (Biacore), N = 1.

Experiment [6] addresses T2, cynomolgus α4β7 integrin. The experiment is described as follows: binding, cynomolgus CD4+ memory T cells, summary table.
For experiment [7], the target named is T5, FcgRIIA H131 (human, UniProt P12318).
T5 construct: cell surface, on engineered CHO-K1 cells; the list of molecules has only an FcγRIIa on CHO-K1 cells without the variant; also called human FcγRIIa (H131) on CHO-K1 cells
T5 sequence (receptor chain, looked up): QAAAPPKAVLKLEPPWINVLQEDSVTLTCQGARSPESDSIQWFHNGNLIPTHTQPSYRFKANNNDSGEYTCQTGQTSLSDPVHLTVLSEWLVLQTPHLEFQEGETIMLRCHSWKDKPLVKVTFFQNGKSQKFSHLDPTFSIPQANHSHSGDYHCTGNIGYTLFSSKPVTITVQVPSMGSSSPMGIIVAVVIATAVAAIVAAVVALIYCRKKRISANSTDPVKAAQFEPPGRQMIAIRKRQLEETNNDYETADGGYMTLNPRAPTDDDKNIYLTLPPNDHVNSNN
Nature of the experiment: flow cytometry on CHO-K1 cells expressing the receptor (curve FcgRIIA H131), monomeric antibody, F(ab')2 anti-human IgG AF647; N=1.

Experiment [8] has as its target T6, human FcγRIIIa (F176) on CHO-K1 cells (human, UniProt P08637 17-254).
T6 construct: whole, on cells; also called F158
Nature of the experiment: flow cytometry on CHO-K1 cells expressing the receptor (curve FcgRIIIA F176), monomeric antibody, F(ab')2 anti-human IgG AF647; N=1.

T6 sequence (P08637 17-254): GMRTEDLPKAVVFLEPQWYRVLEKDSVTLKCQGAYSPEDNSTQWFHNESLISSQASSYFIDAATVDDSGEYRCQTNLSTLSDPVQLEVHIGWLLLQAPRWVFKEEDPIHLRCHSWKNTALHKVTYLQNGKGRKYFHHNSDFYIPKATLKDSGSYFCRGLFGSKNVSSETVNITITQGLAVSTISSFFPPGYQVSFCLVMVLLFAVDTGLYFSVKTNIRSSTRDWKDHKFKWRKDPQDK
T4 sequence (Q8SPW2 17-208): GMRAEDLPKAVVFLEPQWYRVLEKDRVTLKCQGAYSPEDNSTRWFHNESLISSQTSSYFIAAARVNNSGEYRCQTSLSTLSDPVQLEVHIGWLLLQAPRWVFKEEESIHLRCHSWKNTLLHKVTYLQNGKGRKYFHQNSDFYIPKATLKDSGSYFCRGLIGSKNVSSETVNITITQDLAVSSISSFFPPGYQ

B1: Ab-h1.9d-WT (antibody, human IgG1, kappa)
heavy: not shown
light: DIQMTQSPSSLSASVGDRVTITCHASQDISDNIGWLQQKPGKSFKLLIYHGTNLEDGVPSRFSGSGSGTDYTLTISSLQPEDFATYYCVQYAQFPWTFGGGTKVEIKRTVAAPSVFIFPPSDEQLKSGTASVVCLLNNFYPREAKVQWKVDNALQSGNSQESVTEQDSKDSTYSLSSTLTLSKADYEKHKVYACEVTHQGLSSPVTKSFNRGEC
notes: IgG1/kappa with D356E and L358M (EU); also called Anti-human α4β7 (AC-166667) hu IgG1/k WT mAb
As a reminder, the EC50 is the midpoint of the concentration-response curve. A word on the Kd: it is the equilibrium constant for the complex coming apart. Low values mean tighter binding, high ones weaker binding. In the case of B1, the concentration for a half-maximal effect (EC50) turned out to be 0.089 nM in experiment [1], 0.01 nM in experiment [2], 0.035 nM in experiment [3] and 0.01 nM in experiment [6]. The Kd in experiment [4] is 7100 nM; in experiment [5] it was 160 nM. The binding result in experiment [7] and in experiment [8] was “binds” throughout.
